Results taken from the supplement of paper PMC7877785.
± gives the uncertainty stated by the source.

Assay: self-splicing fitness, log relative to wild type (ln ratio); higher = more splicing; Tetrahymena group I intron in knt gene, E. coli kanamycin selection, DiMSum; sequences stand for … in CUCUCU…GGAGGGAAAAGUUAUCAGGCAUGCACCUGGUAGCUAGUCUUUAAACCAAUAGAUUGCAUCGGUUUAAAAGGCAAGACCGUCAAAUUGCGGGAAAGGGGUCAACAGCCGUUCAGUACCAAGUCUCAGGGGAAACUUUGAGAUGGCCUUGCAAAGGGUAUGGUAAUAAGCUGACGGACAUGGUCCUAACCACGCAGCCAAGUCCUAAGUCAACAGAUCUUCUGUUGAUAUGGAUGCAGUUCACAGACUAAAUGUCGGUCGGGGAAGAUGUAUUCUUCUCAUAAGAUAUAGUCGGACCUCUCCUUAAUGGGAGCUAGCGGAUGAAGUGAUGCAACACUGGAGCCGCUGGGAACUAAUUUGUAUGCGAAAGUAUAUUGAUUAGUUUUGGAGUACUCGUGGUCG
Procedure, shortened: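 Fitness was computed with DiMSum as the error-weighted combination of replicate fold changes, kanamycin versus none, each normalised to wild type. The library randomised all eight intron nucleotides of the P1ex region, with the intron placed in the knt kanamycin-resistance gene on pET-22b(+) in E. coli BL21(DE3). Six replicate transformations were grown overnight at 37°C or 30°C on LB agar with or without 25 μg/mL kanamycin, plus 100 μg/mL carbenicillin, 50 μM IPTG and 0.2% rhamnose. Pooled colonies were amplicon-sequenced on an Illumina HiSeq 2500.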

AGGUAGCAAUAUUACGAACG
self-splicing fitness (ln) (30 °C): -0.798 ± 0.016
self-splicing fitness (ln) (37 °C): -0.207 ± 0.035

CUCCAGCAAUAUUACGGAGG
self-splicing fitness (ln) (30 °C): -3.04 ± 0.17
self-splicing fitness (ln) (37 °C): -2.44 ± 0.13

AGAAAGCAAUAUUACGUCCC
self-splicing fitness (ln) (30 °C): -0.156 ± 0.18
self-splicing fitness (ln) (37 °C): 0.119 ± 0.25

AGCGAGCAAUAUUACGGAUU
self-splicing fitness (ln) (37 °C): -1.96 ± 0.35

UCGAAGCAAUAUUACGGGGG
self-splicing fitness (ln) (30 °C): -1.86 ± 0.18
self-splicing fitness (ln) (37 °C): -1.39 ± 0.2

AGCUAGCAAUAUUACGUCCC
self-splicing fitness (ln) (30 °C): -1.33 ± 0.21
self-splicing fitness (ln) (37 °C): 0.355 ± 0.22

UCCCAGCAAUAUUACGAAGU
self-splicing fitness (ln) (30 °C): -2.04 ± 0.1
self-splicing fitness (ln) (37 °C): -1.14 ± 0.11

CUCUAGCAAUAUUACGCGAG
self-splicing fitness (ln) (30 °C): -3.63 ± 0.25
self-splicing fitness (ln) (37 °C): -3.28 ± 0.37

AGUAAGCAAUAUUACGCGAA
self-splicing fitness (ln) (30 °C): -2.57 ± 0.12
self-splicing fitness (ln) (37 °C): -1.42 ± 0.19

UUAAAGCAAUAUUACGGAGG
self-splicing fitness (ln) (30 °C): -1.34 ± 0.12
self-splicing fitness (ln) (37 °C): -1.27 ± 0.17

UCUAAGCAAUAUUACGGUCU
self-splicing fitness (ln) (30 °C): -3.41 ± 0.21
self-splicing fitness (ln) (37 °C): -3.34 ± 0.31

GGAUAGCAAUAUUACGCCCG
self-splicing fitness (ln) (30 °C): -1.49 ± 0.24
self-splicing fitness (ln) (37 °C): -0.949 ± 0.27

GUGAAGCAAUAUUACGUUAU
self-splicing fitness (ln) (30 °C): -1.15 ± 0.08
self-splicing fitness (ln) (37 °C): -1.2 ± 0.11

GGAAAGCAAUAUUACGGUGC
self-splicing fitness (ln) (30 °C): -3.36 ± 0.27
self-splicing fitness (ln) (37 °C): -1.62 ± 0.23

GCGAAGCAAUAUUACGUGUG
self-splicing fitness (ln) (30 °C): -2.61 ± 0.12
self-splicing fitness (ln) (37 °C): -1.67 ± 0.11

UGGGAGCAAUAUUACGCGUG
self-splicing fitness (ln) (30 °C): -2.51 ± 0.12
self-splicing fitness (ln) (37 °C): -1.67 ± 0.12

AACGAGCAAUAUUACGCGGU
self-splicing fitness (ln) (30 °C): -3.29 ± 0.26
self-splicing fitness (ln) (37 °C): -1.62 ± 0.15

UCUUAGCAAUAUUACGCCAG
self-splicing fitness (ln) (30 °C): -2.74 ± 0.27

UUAAAGCAAUAUUACGCUGA
self-splicing fitness (ln) (30 °C): -0.633 ± 0.098
self-splicing fitness (ln) (37 °C): -0.46 ± 0.14

ACUGAGCAAUAUUACGGCAG
self-splicing fitness (ln) (30 °C): -1.75 ± 0.12
self-splicing fitness (ln) (37 °C): -0.311 ± 0.15

AUCUAGCAAUAUUACGUCCA
self-splicing fitness (ln) (30 °C): -0.699 ± 0.14
self-splicing fitness (ln) (37 °C): 0.279 ± 0.12

UGCUAGCAAUAUUACGUACC
self-splicing fitness (ln) (37 °C): 0.784 ± 0.4

ACCCAGCAAUAUUACGUGUA
self-splicing fitness (ln) (30 °C): -1.38 ± 0.06
self-splicing fitness (ln) (37 °C): -0.689 ± 0.064

CAGCAGCAAUAUUACGGUUA
self-splicing fitness (ln) (30 °C): -0.417 ± 0.06
self-splicing fitness (ln) (37 °C): -0.163 ± 0.059

CGGGAGCAAUAUUACGCUCA
self-splicing fitness (ln) (30 °C): -4.3 ± 0.46
self-splicing fitness (ln) (37 °C): -0.0948 ± 0.37

CACGAGCAAUAUUACGAUGA
self-splicing fitness (ln) (30 °C): -3.21 ± 0.24
self-splicing fitness (ln) (37 °C): -2.17 ± 0.23

GCUCAGCAAUAUUACGUGCG
self-splicing fitness (ln) (30 °C): -1.32 ± 0.084
self-splicing fitness (ln) (37 °C): -0.22 ± 0.1

GAACAGCAAUAUUACGAGAA
self-splicing fitness (ln) (30 °C): -3.45 ± 0.25
self-splicing fitness (ln) (37 °C): -1.44 ± 0.17

CCGUAGCAAUAUUACGACGA
self-splicing fitness (ln) (30 °C): -0.268 ± 0.11
self-splicing fitness (ln) (37 °C): -0.689 ± 0.1

GCAUAGCAAUAUUACGUUCA
self-splicing fitness (ln) (30 °C): -1.41 ± 0.11
self-splicing fitness (ln) (37 °C): -0.882 ± 0.13

UCUAAGCAAUAUUACGAUUC
self-splicing fitness (ln) (30 °C): -3.14 ± 0.16
self-splicing fitness (ln) (37 °C): -2.83 ± 0.23

UAUAAGCAAUAUUACGUAUU
self-splicing fitness (ln) (30 °C): -4.41 ± 0.37
self-splicing fitness (ln) (37 °C): -1.61 ± 0.18

CGGGAGCAAUAUUACGAAGG
self-splicing fitness (ln) (30 °C): -1.9 ± 0.39
self-splicing fitness (ln) (37 °C): -1.74 ± 0.41

AAGUAGCAAUAUUACGGGGU
self-splicing fitness (ln) (30 °C): -3.03 ± 0.15
self-splicing fitness (ln) (37 °C): -2.53 ± 0.15

AGAUAGCAAUAUUACGCCCU
self-splicing fitness (ln) (30 °C): -0.337 ± 0.19
self-splicing fitness (ln) (37 °C): 0.138 ± 0.21

ACCUAGCAAUAUUACGCGCU
self-splicing fitness (ln) (30 °C): 0.00461 ± 0.076
self-splicing fitness (ln) (37 °C): -0.0669 ± 0.096

GUGCAGCAAUAUUACGUAUU
self-splicing fitness (ln) (30 °C): -1.7 ± 0.1
self-splicing fitness (ln) (37 °C): -1.78 ± 0.12

AAAAAGCAAUAUUACGUGAA
self-splicing fitness (ln) (30 °C): -1.24 ± 0.078
self-splicing fitness (ln) (37 °C): -0.618 ± 0.11

GGCCAGCAAUAUUACGUGGU
self-splicing fitness (ln) (30 °C): -3.49 ± 0.21
self-splicing fitness (ln) (37 °C): -1.76 ± 0.2
